Measured values reported in publication PMC9876794 (2022).
Where a chain is given by its changes, count along the chain named.

B1: C2725 (antibody, V domains shown)
VH: EVQLVESGGGLVQPGRSLRLSCAASGFTFDDYAMHWVRQAPGKGLEWVSGISWNSGSIGYADSVKGRFTISRDNAKNSLYLQMNSLRAEDTALYYCAKLSRGHYYDFKADSGDFDYWGQGTLVTVSS
VL: QSALTQPASVSGSPGQSITISCTGTSSDVGSYNLVSWYQQHPGKAPKLMIYEGSKRPSGVSNRFSGSKSGNTASLTISGLQAEDEADYYCCSYAGSSWVFGGGTKLTVL
B2: C2692 (antibody, V domains shown)
VH: EVQLVESGGGLVQPGRSLRLSCAASGFTFDDYAMHWVRQAPGKGLEWVSGISWNSGSIGYADSVKGRFTISRDNAKNSLYLQMNSLRAEDTALYYCAKDIDTMVQGGEFYFDYWGQGTLVTVSS
VL: QSALTQPASVSGSPGQSITISCTGTSSDVGGYNYVSWYQQHPGKAPKLMIYDVSNRPSGVSNRFSGSKSGNTASLTISGLQAEDEADYYCSSYTSSSTVVFGGGTKLTVL
B3: D090 (antibody, V domains shown)
VH: EVQLVESGGGLVQPGRSLRLSCAASGFTFDDYAMHWVRQAPGKGLEWVSGISWNSGSIGYADSVKGRFTISRDNAKNSLYLQMNSLRAEDMALYYCAKGLPYSSSWYDAFDIWGQGTMVTVSS
VL: not shown
B4: D179 (antibody, V domains shown)
VH: EVQLVESGGGLVQPGRSLRLSCAASGFTFDDYAMHWVRQAPGKGLEWVSGISWNSGSIGYADSVKGRFTISRDNAKNSLYLQMNSLRAEDTALYYCAKGQIVGATSSDYGMDVWGQGTTVTVSS
VL: DIQMTQSPSSVSASVGDRVTITCRASQGISSWLAWYQQKPGKAPKLLIYAASSLQSGVPSRFSGSGSGTDFTLTISSLQPEDFATYYCQQANSFPYTFGQGTKLEIK
B5: D026 (antibody, V domains shown)
VH: EVQLVESGGGLVQPGRSLRLSCAASGFTFDDYAMHWVRQAPGKGLEWVSGISWNSGSIGYADSVKGRFTISRDNAKNSLYLQMNSLRAEDTALYYCAKDIHYDSSGLDYWGQGTLVTVSS
VL: not shown
B6: D116 (antibody, V domains shown)
VH: EVQLVESGGGLVLPGGSLRLSCVASGFTFSSYWMTWVRQAPGKGLEWVANIQRDGREKYYVDSLKGRFSISRDNDKNSLYLQMNNLRAEDTGVYYCARAQTCTTCSSPNWFDPWGQGTLVTVSS
VL: QSVLTQPASVSGSPGQSITISCTGTSSDVGSYNLVSWYQQHPGKAPKLIIYEGSKRPSGVSNRFSGSKSGNTASLTISGLQAEDEADYYCCSYAGSNTLVFGGGTKVTVL
B7: D175 (antibody, V domains shown)
VH: QLQLQESGPGLVKPSETLSLTCTVSGGSISSSSYYWGWIRQPPGKGLEWIGSIYYSGSTYYNPSLKSRVTISVDTSKNQFSLKLSSVTAADTAVYYCARGATYYYDSSGYYTPAPFDYWGQGTLVTVSS
VL: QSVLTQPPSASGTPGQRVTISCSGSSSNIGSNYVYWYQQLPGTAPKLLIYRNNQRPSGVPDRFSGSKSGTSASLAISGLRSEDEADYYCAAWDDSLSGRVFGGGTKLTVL
B8: D185 (antibody, V domains shown)
VH: QVQLVQSGAEVKKPGSSVKVSCKASGGTFSSYAISWVRQAPGQGLEWMGGIIPIFGTANYAQKFQGRVTITADKSTSTAYMELSSLRSEDTAVYYCARAQQQLVQHGGYGMDVWGQGTTVTVSS
VL: QSVLTQPPSVSGAPGQRVTISCTGSSSNIGAGYDVHWYQQLPGTAPKLLIYGNSNRPSGVPDRFSGSKSGTSASLAITGLQAEDEADYYCQSYDSSLSAVVFGGGTKLTVL
B9: D133 (antibody, V domains shown)
VH: EVQLVESGGGLVQPGGSLRLSCAASGFTFSSYDMHWVRQATGKGLEWVSAIGTAGDTYYPGSVKGRFTISRENAKNSLYLQMNSLRAGDTAVYYCARGTTVSQQYPSGIPYYYGMDVWGQGTTVTVSS
VL: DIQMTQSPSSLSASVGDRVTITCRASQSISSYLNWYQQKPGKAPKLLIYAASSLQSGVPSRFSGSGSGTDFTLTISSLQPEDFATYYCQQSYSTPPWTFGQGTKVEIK
B10: D119 (antibody, V domains shown)
VH: QLQLQESGPGLVKPSETLSLTCTVSGGSISSSSYYWGWIRQPPGKGLEWIGSIYYSGSTYYNPSLKSRVTISVDTSKNQFSLKLSSVTAADTAVYYCARLYSSGWYAFISWGQGTLVTVSS
VL: not shown
B11: D110 (antibody, V domains shown)
VH: EVQLLESGGGLVQPGGSLRLSCTASGFTFSNYAMNWVRQAPGQGLEWVSAISGSGYSTYYVDSAKGRFTISRDNSKNTLYLQMNSLRADDTAVFYCTKSTYYDNSGYYSVFDYWGQGTLVTVSS
VL: NFMLTQPHSVSESPGETVTISCTRSSGNIASKFVQWFQQRPGSSPTTVIYENNQRPSGVPDRFSGSIDSSSNSASLTISGLKTEDEADYYCQSSDSTNVVFGGGTKLTVL
B12: D135 (antibody, V domains shown)
VH: EVQLVESGGGLIQPGGSLRLSCAASGFTVSSNYMTWVRQAPGKGLEWVSLIYSGGSTYYTDSVKGRFTISRDNSKNTLYLQMNSLRAEDTAVYYCARLLITMVRGVISSGLDYWGQGTLVTVSS
VL: EIVLTQSPGTLSLSPGERATLSCRASQSVSSSYLAWYQQRPGQPPRLLIYGASSRATGIPDRFSDSGSGTDFTLTISRLEPEDFAVYYCQQYGSSPPITFGQGTRLDIK
B13: D187 (antibody, V domains shown)
VH: QVQLVQSGAEVKKPGSSVKVSCKASGGTFSSYAISWVRQAPGQGLEWMGGIIPIFGTANYAQKFQGRVTITADESTSTAYMELSSLRSEDTAVYYCATRGWSGYQTMQKNAFDIWGQGTMVTVSS
VL: not shown
B14: D134 (antibody, V domains shown)
VH: EVQLVESGGGVVQPGGSLRLSCAASGFTFDDYAMHWVRQAPGKGLEWVSLISGDGGSTYYADSVKGRFTISRDNSKNSLYLQMNSLRTEDTALYYCANGERGGNPRGGYYYYGMDVWGQGTTVTVSS
VL: EIVLTQSPATLSLSPGERATLSCRASQSVSSYLAWYQQKPGQAPRLLIYDASNRATGIPARFSGSGSGTDFTLTISSLEPEDFAVYYCQQRSNWPPYTFGQGTKLEIK
B15: D151 (antibody, V domains shown)
VH: QVQLQQWGAGLLKPSETLSLTCAVYGGSFSGYYWSWIRQPPGKGLEWIGEINHDGDTNYNPSLKSRVTLSVDTSKNQFSLSLSSVTAADTAVYYCARRKQQQSYYYYSIDVWGQGTTVTVSS
VL: DIQMTQSPSSLSASVGDRVTITCRATQGIRNDLGWYQQKPGKAPKRLIYAASSLQSGVPSRFSGSGSGTEFTLTISSLQPEDFATYYCLQHSSYPLTFGGGTKVEIK
B16: D180 (antibody, V domains shown)
VH: EVQLVESGGGLVQPGGTLRLSCEASGFAFSTFWMTWVRQAPGKGLEWVANIKQDGSEKYYVDSVKGRFTISRDNAKNSLYLQMNSLRAEDTAVYYCASRSIVVAGTDYWGQGTLVTVSS
VL: not shown
B17: C2713 (antibody, V domains shown)
VH: QVQLVQSGAEVKKPGASVKVSCKASGYTFTSYYMHWVRQAPGQGLEWMGIINPSGGSTSYAQKFQGRVTMTRDTSTSTVYMELRSLRSEDTAVYYCARDRSSNYGMDVWGQGTTVTVSS
VL: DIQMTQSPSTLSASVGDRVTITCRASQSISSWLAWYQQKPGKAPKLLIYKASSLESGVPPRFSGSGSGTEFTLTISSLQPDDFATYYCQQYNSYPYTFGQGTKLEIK
B18: D170 (antibody, V domains shown)
VH: QVQLVQSGAEVKKPGSSVKVSCKASGGTFSSYAISWVRQAPGQGLEWMGGIIPIFGTANYAQKFQGRVTITADESTSTAYMELSSLRSEDTAVYYCAREGGYCSGGSCSHYFDAFDIWGQGTMVTVSS
VL: QSALTQPASVSGSPGQSITISCTGTSSDVGSYNLVSWYQQHPGKAPKLMIYEGSKRPSGVSNRFSGSKSGNTASLTISGLQAEDEADYYCCSYAGSSTFWVFGGGTKLTVL
B19: D176 (antibody, V domains shown)
VH: QVQLVQSGAEVKKPGASVKVSCKASGYTFTSYDINWVRQATGQGLEWMGWMNPNSGNTGYAQKFQGRVTITRNTSISTAYMELSSLRSEDTAVYYCARGGSLMDVWGKGTTVTVSS
VL: B18 VL with S2F, A3V, S31G, L34Y, E52D, G53V, C91S, A94T, G95S, W100E
B20: D181 (antibody, V domains shown)
VH: QVQLQESGPGLVKPSQTLSLTCTVSGGSISSGGYYWSWIRQHPGKGLEWIGYIYYSGSTYYNPSLKSRVTISVDTSKNQFSLKLSSVTAADTAVYYCARDRMEIYYDSSGYHPGPFDYWGQGTLVTVSS
VL: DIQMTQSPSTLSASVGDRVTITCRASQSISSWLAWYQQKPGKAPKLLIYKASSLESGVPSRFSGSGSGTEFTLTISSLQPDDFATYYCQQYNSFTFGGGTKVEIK
B21: D130 (antibody, V domains shown)
VH: EVQLVESGGGLVQPGRSLRLSCAASGFTFDDYAMHWVRQAPGKGLEWVSGISWNSGSIGYADSVKGRFTISRDNAKNSLYLQMNSLRAEDTALYYCAKSGLYGDYDAAFDYWGQGTLVTVSS
VL: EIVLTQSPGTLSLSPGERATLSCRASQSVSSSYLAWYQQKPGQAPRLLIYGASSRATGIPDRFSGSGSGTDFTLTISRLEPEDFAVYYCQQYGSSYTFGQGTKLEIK
B22: D139 (antibody, V domains shown)
VH: QVQLVESGGGVVQPGRSLRLSCAASGFTFSSYGMHWVRQAPGKGLEWVAVISYDGSNKYYADSVKGRFTISRDNSKNTLYLQMNSLRAEDTAVYYCAKMGGGVYCSGGSCYSSYFDYWGQGTLVTVSS
VL: AIQLTQSPSSLSASVGDRVTITCRASQGISSALAWYQQKPGKAPKLLIYDASSLESGVPSRFSGSGSGTDFTLTISSLQPEDFATYYCQQFNNYLPLTFGGGTKVEIK
B23: D153 (antibody, V domains shown)
VH: QVQLVQSGAEVKKPGASVKVSCKASGYTFTSYGISWVRQAPGQGLEWMGWISAYNGNTNYAQKLQGRVTMTTDTSTSTAYMELRSLRSDDTAVYYCARDFNDFWSGYWGYWGQGTLVTVSS
VL: QSALTQPPSASGSPGQSVTISCTGTSSDVGGYNYVSWYQQHPGKAPKLMIYEVSKRPSGVPDRFSGSKSGNTASLTVSGLQAEDEADYYCSSYAGSNNLVFGGGTKLTVL
B24: D156 (antibody, V domains shown)
VH: EVQLLESGGGLAQPGGSLRLSCAASGFTFSSYAMSWVRQAPGKGLEWVSAISGSGGTYYADFVKGRFTISRDDSKNTLYLQINSLRAEDTAIYYCAKDGYGSGNYKLRYLELWGRGTLVTVSS
VL: QSVLTQPASVSGSPGQSITISCTGTSSDVGGYNYVSWYQQHPGKAPKFMIYDVSKRPSGVSNRFSGSKSGNTASLTISGLQAEDEADYYCFSYAGSLVFGGGTKLTVL
B25: D087 (antibody, V domains shown)
VH: QVQLVQSGAEVKKPGASVKVSCKASGYTFTNYDFNWVRQAPGQGLEWMGWMNPNSGNTGYAQKFQGRVTITRNTSINTAYMELSSLRSEDTAVYYCARAPDCSSFSCSYYFDYWGQGTLVTVSS
VL: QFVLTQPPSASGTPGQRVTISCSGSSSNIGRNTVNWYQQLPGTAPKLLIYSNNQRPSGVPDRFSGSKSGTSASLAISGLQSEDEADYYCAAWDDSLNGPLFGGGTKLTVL
B26: D011 (antibody, V domains shown)
VH: EVQLVESGGGLVQPGRSLRLSCAASGFTFDDYAMHWVRQAPGKGLEWVSGISWNSGSIGYADSVKGRFTISRDNAKNSLYLQMNSLRAEDTALYYCAKGDSSGYYFAYEDYGMDVWGQGTTVTVSS
VL: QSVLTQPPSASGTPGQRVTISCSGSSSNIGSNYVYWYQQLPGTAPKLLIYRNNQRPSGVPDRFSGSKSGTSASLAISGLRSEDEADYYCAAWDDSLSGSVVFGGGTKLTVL

Each binder was assayed against SARS-CoV-2 spike RBD (WT) (Severe acute respiratory syndrome …, UniProt P0DTC2) (assay: ELISA).
Design: unit not given here

Binder | binding score
B1 | 230
B2 | 1200
B3 | > 10000
B4 | 8900
B5 | > 10000
B6 | > 10000
B7 | > 10000
B8 | > 10000
B9 | > 10000
B10 | > 10000
B11 | 2330
B12 | 1110
B13 | > 10000
B14 | > 10000
B15 | > 10000
B16 | 8900
B17 | 4560
B18 | 3050
B19 | 1430
B20 | > 10000
B21 | > 10000
B22 | 311
B23 | > 10000
B24 | > 10000
B25 | > 10000
B26 | > 10000
